The target in the assay is recombinant human PD-L1 (rhPD-L1) ectodomain (human) (UniProt Q9NZQ7). Nature of the assay: SPR.
Chain of UniProt Q9NZQ7 (Q9NZQ7 19-238): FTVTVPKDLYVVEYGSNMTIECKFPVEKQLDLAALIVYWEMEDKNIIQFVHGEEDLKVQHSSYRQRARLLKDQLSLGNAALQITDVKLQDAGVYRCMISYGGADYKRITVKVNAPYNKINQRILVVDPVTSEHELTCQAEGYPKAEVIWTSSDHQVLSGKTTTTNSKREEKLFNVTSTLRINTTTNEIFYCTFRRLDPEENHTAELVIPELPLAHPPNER
With “MVF-PD-1 (32–50) (from UniProt P69353 288-302) (peptide)”, the response (RU) turned out to be 11 RU.
Take “MVF-PD-1 (45–64) (from UniProt P69353 288-302) (peptide)”: the response (RU) came out at 110 RU.
For the substance “MVF-PD-1 (73–90) (from UniProt P69353 288-302) (peptide)”, the response (RU) is 110 RU.
For “MVF-PD-1 (92–110) (from UniProt P69353 288-302) (peptide)” the value was 110 RU.

The values above are taken from paper PMC7553530.
